Among the data in PMC8564726 (2021) are Kd values, retold here.

The target in assay [1] is H3K9me1 monomethylated mononucleosome (methyl-lysine analog), 147 bp 601 DNA 5'-fluorescein-labeled (monomethyl-lysine analog (MLA) at K9). The experiment in a line: FP.
Assay [2] addresses unmethylated mononucleosome (H3K9me0), 147 bp 601 DNA 5'-fluorescein-labeled. Put plainly: FP.
In assay [3] the target is T1, H3K9me0 peptide (Homo sapiens, unmethylated K9; fluorescein label; H3(1-20) in mature numbering (initiator Met removed)). The experiment in a line: FP; lower limit, no saturation.
The target in assay [4] is H3K9me2 dimethylated mononucleosome (methyl-lysine analog), 147 bp 601 DNA 5'-fluorescein-labeled (dimethyl-lysine analog (MLA) at K9). Put plainly: FP.
In assay [5] the target is T1, H3K9me0 peptide. The experiment in a line: FP; MBP-tagged full-length G9a; lower limit, no saturation.

B1: GLP ANK-SET homodimer (complex)
chain: QEKSLAAEGRADTTTGSIAGAPEDERSQSTAPQAPECFDPAGPAGLVRPTSGLSQGPGKETLESALIALDSEKPKKLRFHPKQLYFSARQGELQKVLLMLVDGIDPNFKMEHQSKRSPLHAAAEAGHVDICHMLVQAGANIDTCSEDQRTPLMEAAENNHLDAVKYLIKAGAQVDPKDAEGSTCLHLAAKKGHYDVVQYLLSNGQMDVNCQDDGGWTPMIWATEYKHVELVKLLLSKGSDINIRDNEENICLHWAAFSGCVDIAEILLAAKCDLHAVNIHGDSPLHIAARENRYDCVVLFLSRDSDVTLKNKEGETPLQCASLSSQVWSALQMSKALRDSAPDKPVAVEKTVSRDIARGYERIPIPCVNAVDSELCPTNYKYVSQNCVTSPMNIDRNITHLQYCVCVDDCSSSTCMCGQLSMRCWYDKDGRLLPEFNMAEPPLIFECNHACSCWRNCRNRVVQNGLRARLQLYRTQDMGWGVRSLQDIPLGTFVCEYVGELISDSEADVREEDSYLFDLDNKDGEVYCIDARFYGNVSRFINHHCEPNLVPVRVFMSHQDLRFPRIAFFSTRLIQAGEQLGFDYGERFWDVKGKLFSCRCGSSKCRHSSAALAQRQASAAQEPQENGLPDTSSAAAADPL
The Kd is the equilibrium constant for the complex coming apart. Higher therefore signals weaker binding. The molecule B1 had a Kd in assay [1] of 5 µM.

B2: G9aS-GLP (protein)
chain 1: AHDAPGRADTSQPSARMRGHGEPRRPPCDPLADTIDSSGPSLTLPNGGCLSAVGLPPGPGREALEKALVIQESERRKKLRFHPRQLYLSVKQGELQKVILMLLDNLDPNFQSDQQSKRTPLHAAAQKGSVEICHVLLQAGANINAVDKQQRTPLMEAVVNNHLEVARYMVQLGGCVYSKEEDGSTCLHHAAKIGNLEMVSLLLSTGQVDVNAQDSGGWTPIIWAAEHKHIDVIRMLLTRGADVTLTDNEENICLHWASFTGSAAIAEVLLNAQCDLHAVNYHGDTPLHIAARESYHDCVLLFLSRGANPELRNKEGDTAWDLTPERSDVWFALQLNRKLRLGVGNRAVRTEKIICRDVARGYENVPIPCVNGVDGEPCPEDYKYISENCETSTMNIDRNITHLQHCTCVDDCSSSNCLCGQLSIRCWYDKDGRLLQEFNKIEPPLIFECNQACSCWRSCKNRVVQSGIKVRLQLYRTAKMGWGVRALQTIPQGTFICEVVGELISDAEADVREDDSYLFDLDNKDGEVYCIDARYYGNISRFINHLCDPNIIPVRVFMLHQDLRFPRIAFFSSRDIRTGEELGFDFGDRFWDIKSKYFTCQCGSEKCKHSAEAIALEQSRLARLDPHPELLPDLSSLPPINT
chain 2: PGQEKSLAAEGRADTTTGSIAGAPEDERSQSTAPQAPECFDPAGPAGLVRPTSGLSQGPGKETLESALIALDSEKPKKLRFHPKQLYFSARQGELQKVLLMLVDGIDPNFKMEHQSKRSPLHAAAEAGHVDICHMLVQAGANIDTCSEDQRTPLMEAAENNHLDAVKYLIKAGAQVDPKDAEGSTCLHLAAKKGHYDVVQYLLSNGQMDVNCQDDGGWTPMIWATEYKHVELVKLLLSKGSDINIRDNEENICLHWAAFSGCVDIAEILLAAKCDLHAVNIHGDSPLHIAARENRYDCVVLFLSRDSDVTLKNKEGETPLQCASLSSQVWSALQMSKALRDSAPDKPVAVEKTVSRDIARGYERIPIPCVNAVDSELCPTNYKYVSQNCVTSPMNIDRNITHLQYCVCVDDCSSSTCMCGQLSMRCWYDKDGRLLPEFNMAEPPLIFECNHACSCWRNCRNRVVQNGLRARLQLYRTQDMGWGVRSLQDIPLGTFVCEYVGELISDSEADVREEDSYLFDLDNKDGEVYCIDARFYGNVSRFINHHCEPNLVPVRVFMSHQDLRFPRIAFFSTRLIQAGEQLGFDYGERFWDVKGKLFSCRCGSSKCRHSSAALAQRQASAAQEPQENGLPDTSSAAAADPL
Molecule B2 displayed a Kd in assay [2] greater than 70 µM.

B3: G9a ANK-SET homodimer (complex)
chain: DAPGRADTSQPSARMRGHGEPRRPPCDPLADTIDSSGPSLTLPNGGCLSAVGLPPGPGREALEKALVIQESERRKKLRFHPRQLYLSVKQGELQKVILMLLDNLDPNFQSDQQSKRTPLHAAAQKGSVEICHVLLQAGANINAVDKQQRTPLMEAVVNNHLEVARYMVQLGGCVYSKEEDGSTCLHHAAKIGNLEMVSLLLSTGQVDVNAQDSGGWTPIIWAAEHKHIDVIRMLLTRGADVTLTDNEENICLHWASFTGSAAIAEVLLNAQCDLHAVNYHGDTPLHIAARESYHDCVLLFLSRGANPELRNKEGDTAWDLTPERSDVWFALQLNRKLRLGVGNRAVRTEKIICRDVARGYENVPIPCVNGVDGEPCPEDYKYISENCETSTMNIDRNITHLQHCTCVDDCSSSNCLCGQLSIRCWYDKDGRLLQEFNKIEPPLIFECNQACSCWRSCKNRVVQSGIKVRLQLYRTAKMGWGVRALQTIPQGTFICEYVGELISDAEADVREDDSYLFDLDNKDGEVYCIDARYYGNISRFINHLCDPNIIPVRVFMLHQDLRFPRIAFFSSRDIRTGEELGFDYGDRFWDIKSKYFTCQCGSEKCKHSAEAIALEQSRLARLDPHPELLPDLSSLPPINT
For the molecule B3, the Kd is greater than 100 µM with H3K9me0 peptide [3], 18.4 µM in assay [4] and 14.8 µM in assay [1].

B4: G9a-GLP ANK-SET heterodimer (complex)
chain 1: B3 chain
chain 2: B1 chain
With B4, the Kd was determined as 4.76 µM in assay [4] and 2.26 µM in assay [1].

B5: full-length G9a (enzyme)
chain: MRGLPRGRGLMRARGRGRAAPTGGRGRGRGGAHRGRGRPRSLLSLPRAQASWAPQLPAGLTGPPVPCLPSQGEAPAEMGALLLEKEPRGAAERVHSSLGDTPQSEETLPKANPDSLEPAGPSSPASVTVTVGDEGADTPVGAASLIGDEPESLEGDGGRIVLGHATKSFPSSPSKGGACPSRAKMSMTGAGKSPPSVQSLAMRLLSMPGAQGAATAGPEPSPATTAAQEGQPKVHRARKTMSKPSNGQPPIPEKRPPEVQHFRMSDDMHLGKVTSDVAKRRKLNSGSLSEDLGSAGGSGDIILEKGEPRPLEEWETVVGDDFSLYYDAYSVDERVDSDSKSEVEALAEQLSEEEEEEEEEEEEEEEEEEEEEEEEEDEESGNQSDRSGSSGRRKAKKKWRKDSPWVKPSRKRRKREPPRAKEPRGVNGVGSSGPSEYMEVPLGSLELPSEGTLSPNHAGVSNDTSSLETERGFEELPLCSCRMEAPKIDRISERAGHKCMATESVDGELLGCNAAILKRETMRPSSRVALMVLCEAHRARMVKHHCCPGCGYFCTAGTFLECHPDFRVAHRFHKACVSQLNGMVFCPHCGEDASEAQEVTIPRGDGGTPPIGTAAPALPPLAHDAPGRADTSQPSARMRGHGEPRRPPCDPLADTIDSSGPSLTLPNGGCLSAVGLPPGPGREALEKALVIQESERRKKLRFHPRQLYLSVKQGELQKVILMLLDNLDPNFQSDQQSKRTPLHAAAQKGSVEICHVLLQAGANINAVDKQQRTPLMEAVVNNHLEVARYMVQLGGCVYSKEEDGSTCLHHAAKIGNLEMVSLLLSTGQVDVNAQDSGGWTPIIWAAEHKHIDVIRMLLTRGADVTLTDNEENICLHWASFTGSAAIAEVLLNAQCDLHAVNYHGDTPLHIAARESYHDCVLLFLSRGANPELRNKEGDTAWDLTPERSDVWFALQLNRKLRLGVGNRAVRTEKIICRDVARGYENVPIPCVNGVDGEPCPEDYKYISENCETSTMNIDRNITHLQHCTCVDDCSSSNCLCGQLSIRCWYDKDGRLLQEFNKIEPPLIFECNQACSCWRSCKNRVVQSGIKVRLQLYRTAKMGWGVRALQTIPQGTFICEYVGELISDAEADVREDDSYLFDLDNKDGEVYCIDARYYGNISRFINHLCDPNIIPVRVFMLHQDLRFPRIAFFSSRDIRTGEELGFDYGDRFWDIKSKYFTCQCGSEKCKHSAEAIALEQSRLARLDPHPELLPDLSSLPPINT
For the molecule B5, the Kd with H3K9me0 peptide [5] was greater than 66 µM.
